The values that follow are results of earlier work, collected in publication PMC8965884, “Synthesis and Characterization of Phenylboronic Acid-Modified Insulin With Glucose-Dependent Solubility” (Frontiers in Chemistry, 2022).

The text on the data set: Insulin glargine, marketed as Lantus®, is a long-acting insulin analog with a 24-h dosing regimen. The additional 2 arginine residues on the C-terminus of the B chain increases its isoelectric point (pI) 6.7, which lowers its solubility at physiological pH and leads to precipitation at the subcutaneous injection site ([Kohn et al., 2007]). Glargine is then released slowly from the precipitate into the bloodstream to establish the long-acting property.

As for Insulin glargine, for the setting “ref Kohn et al., 2007”, the “isoelectric point (pI)” value was 6.7. As to `OB(O)c1ccccc1` [PBA, phenylboronic acids], the pKa (non-substituted PBA, ref Yan et al., 2004) is listed as 8.8.

By pKa is commonly meant the pH at which an ionisable group is half protonated.
